The target of this assay is TβRII-IgG Fc fusion protein (human) (UniProt P37173). Description: capture assay on plate-immobilised TβRII-Fc, detection biotin anti-IL-2 / streptavidin-HRP, TMB 450 nm; Kd from the capture curve.

Sequence of masked TGF-β1 construct, IL-2 - IgG scaffold - TβRII(Δ25, D118A) mask - TGF-β1 (P01137 other isoform, or with tags, fused parts or gaps, stated change not applied): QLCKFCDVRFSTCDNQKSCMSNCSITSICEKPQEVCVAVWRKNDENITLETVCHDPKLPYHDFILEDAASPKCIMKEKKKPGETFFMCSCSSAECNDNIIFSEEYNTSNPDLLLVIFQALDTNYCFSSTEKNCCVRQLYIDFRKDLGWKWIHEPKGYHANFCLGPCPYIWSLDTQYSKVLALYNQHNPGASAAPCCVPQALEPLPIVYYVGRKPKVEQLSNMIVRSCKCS
Sequence of masked TGF-β1 construct, IL-2 - IgG scaffold - TβRII(Δ25, D118A, D32N) mask - TGF-β1 (P01137 other isoform, or with tags, fused parts or gaps, stated change not applied): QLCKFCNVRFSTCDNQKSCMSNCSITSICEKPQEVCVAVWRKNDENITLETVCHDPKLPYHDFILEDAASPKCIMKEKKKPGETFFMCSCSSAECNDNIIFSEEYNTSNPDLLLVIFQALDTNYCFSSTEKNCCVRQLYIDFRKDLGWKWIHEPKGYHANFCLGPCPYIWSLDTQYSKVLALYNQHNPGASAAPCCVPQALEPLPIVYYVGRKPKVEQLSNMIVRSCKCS
Sequence of masked TGF-β1 construct, IL-2 - IgG scaffold - TβRII(Δ25, D118A, S52L) mask - TGF-β1 (P01137 other isoform, or with tags, fused parts or gaps, stated change not applied): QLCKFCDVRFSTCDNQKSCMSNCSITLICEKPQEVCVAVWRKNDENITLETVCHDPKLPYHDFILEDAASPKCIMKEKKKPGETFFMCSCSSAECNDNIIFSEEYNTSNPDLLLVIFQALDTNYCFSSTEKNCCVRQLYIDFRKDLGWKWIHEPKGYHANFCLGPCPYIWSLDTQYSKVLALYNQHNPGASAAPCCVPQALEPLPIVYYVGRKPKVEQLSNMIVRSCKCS
Sequence of masked TGF-β1 construct, IL-2 - IgG scaffold - TβRII(Δ25, D118A, E55A) mask - TGF-β1 (P01137 other isoform, or with tags, fused parts or gaps, stated change not applied): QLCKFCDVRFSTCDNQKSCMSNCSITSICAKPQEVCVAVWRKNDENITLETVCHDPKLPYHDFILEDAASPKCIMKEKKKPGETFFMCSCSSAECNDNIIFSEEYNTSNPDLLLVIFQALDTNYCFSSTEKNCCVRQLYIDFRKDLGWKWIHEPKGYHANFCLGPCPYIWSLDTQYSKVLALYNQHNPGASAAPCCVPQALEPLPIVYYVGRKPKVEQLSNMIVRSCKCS

As usually defined, the Kd is a measure of binding affinity in units of concentration. Higher therefore signals a looser complex. On to “masked TGF-β1 construct, IL-2 - IgG scaffold - TβRII(Δ25, D118A) mask - TGF-β1 (from UniProt P01137 279-390) (Fc fusion)”, for which the equilibrium dissociation constant (Kd) is 1.51 µM. Take “masked TGF-β1 construct, IL-2 - IgG scaffold - TβRII(Δ25, D118A, D32N) mask - TGF-β1 (from UniProt P01137 279-390) (Fc fusion)”: the Kd was 5.9 µM. The same measure for “masked TGF-β1 construct, IL-2 - IgG scaffold - TβRII(Δ25, D118A, E55A) mask - TGF-β1 (from UniProt P01137 279-390) (Fc fusion)”: 2.99 µM; for “masked TGF-β1 construct, IL-2 - IgG scaffold - TβRII(Δ25, D118A, S52L) mask - TGF-β1 (from UniProt P01137 279-390) (Fc fusion)”: 154 µM.

Values taken from patent US20230416321A1.
